Test results reported in patent publication US20230093708A1, “PROTEIN NANOPARTICLE DESIGN AND APPLICATION” (Duke University, priority 2020, published 2023).
Non-standard residues stand in square brackets, D forms with d. Phe(4-N3) = [N-]=[N+]=Nc1ccc(C[C@H](N)C(=O)O)cc1

B1: RLP80-ELPV80: RLP-ELP block co-polypeptide with Val guest residue in the corona (protein)
chain: QYPSDGRGQYPSDGRGQYPSDGRGQYPSDGRGQYPSDGRGQYPSDGRGQYPSDGRGQYPSDGRGQYPSDGRGQYPSDGRGQYPSDGRGQYPSDGRGQYPSDGRGQYPSDGRGQYPSDGRGQYPSDGRGQYPSDGRGQYPSDGRGQYPSDGRGQYPSDGRGQYPSDGRGQYPSDGRGQYPSDGRGQYPSDGRGQYPSDGRGQYPSDGRGQYPSDGRGQYPSDGRGQYPSDGRGQYPSDGRGQYPSDGRGQYPSDGRGQYPSDGRGQYPSDGRGQYPSDGRGQYPSDGRGQYPSDGRGQYPSDGRGQYPSDGRGQYPSDGRGQYPSDGRGQYPSDGRGQYPSDGRGQYPSDGRGQYPSDGRGQYPSDGRGQYPSDGRGQYPSDGRGQYPSDGRGQYPSDGRGQYPSDGRGQYPSDGRGQYPSDGRGQYPSDGRGQYPSDGRGQYPSDGRGQYPSDGRGQYPSDGRGQYPSDGRGQYPSDGRGQYPSDGRGQYPSDGRGQYPSDGRGQYPSDGRGQYPSDGRGQYPSDGRGQYPSDGRGQYPSDGRGQYPSDGRGQYPSDGRGQYPSDGRGQYPSDGRGQYPSDGRGQYPSDGRGQYPSDGRGQYPSDGRGQYPSDGRGQYPSDGRGQYPSDGRGQYPSDGRGGVGVPGVGVPGVGVPGVGVPGVGVPGVGVPGVGVPGVGVPGVGVPGVGVPGVGVPGVGVPGVGVPGVGVPGVGVPGVGVPGVGVPGVGVPGVGVPGVGVPGVGVPGVGVPGVGVPGVGVPGVGVPGVGVPGVGVPGVGVPGVGVPGVGVPGVGVPGVGVPGVGVPGVGVPGVGVPGVGVPGVGVPGVGVPGVGVPGVGVPGVGVPGVGVPGVGVPGVGVPGVGVPGVGVPGVGVPGVGVPGVGVPGVGVPGVGVPGVGVPGVGVPGVGVPGVGVPGVGVPGVGVPGVGVPGVGVPGVGVPGVGVPGVGVPGVGVPGVGVPGVGVPGVGVPGVGVPGVGVPGVGVPGVGVPGVGVPGVGVPGVGVPGVGVPGVGVPGVGVPGVGVPGVGVPGVGVPGVGVP
B2: UAA2-40: pAzF-containing sphere-forming diblock construct, two pAzF residues per polypeptide chain (protein)
chain: QYPSDGRGQYPSDGRGQYPSDGRGQYPSDGRGQYPSDGRGQYPSDGRGQYPSDGRGQYPSDGRGQYPSDGRGQYPSDGRGQYPSDGRGQYPSDGRGQYPSDGRGQYPSDGRGQYPSDGRGQYPSDGRGQYPSDGRGQYPSDGRGQYPSDGRGQYPSDGRG[Phe(4-N3)]QYPSDGRGQYPSDGRGQYPSDGRGQYPSDGRGQYPSDGRGQYPSDGRGQYPSDGRGQYPSDGRGQYPSDGRGQYPSDGRGQYPSDGRGQYPSDGRGQYPSDGRGQYPSDGRGQYPSDGRGQYPSDGRGQYPSDGRGQYPSDGRGQYPSDGRGQYPSDGRG[Phe(4-N3)]
B3: RLP80-ELPS80: RLP-ELP block co-polypeptide with Ser guest residue in the corona (protein)
chain: QYPSDGRGQYPSDGRGQYPSDGRGQYPSDGRGQYPSDGRGQYPSDGRGQYPSDGRGQYPSDGRGQYPSDGRGQYPSDGRGQYPSDGRGQYPSDGRGQYPSDGRGQYPSDGRGQYPSDGRGQYPSDGRGQYPSDGRGQYPSDGRGQYPSDGRGQYPSDGRGQYPSDGRGQYPSDGRGQYPSDGRGQYPSDGRGQYPSDGRGQYPSDGRGQYPSDGRGQYPSDGRGQYPSDGRGQYPSDGRGQYPSDGRGQYPSDGRGQYPSDGRGQYPSDGRGQYPSDGRGQYPSDGRGQYPSDGRGQYPSDGRGQYPSDGRGQYPSDGRGQYPSDGRGQYPSDGRGQYPSDGRGQYPSDGRGQYPSDGRGQYPSDGRGQYPSDGRGQYPSDGRGQYPSDGRGQYPSDGRGQYPSDGRGQYPSDGRGQYPSDGRGQYPSDGRGQYPSDGRGQYPSDGRGQYPSDGRGQYPSDGRGQYPSDGRGQYPSDGRGQYPSDGRGQYPSDGRGQYPSDGRGQYPSDGRGQYPSDGRGQYPSDGRGQYPSDGRGQYPSDGRGQYPSDGRGQYPSDGRGQYPSDGRGQYPSDGRGQYPSDGRGQYPSDGRGQYPSDGRGQYPSDGRGQYPSDGRGQYPSDGRGQYPSDGRGQYPSDGRGGSGVPGSGVPGSGVPGSGVPGSGVPGSGVPGSGVPGSGVPGSGVPGSGVPGSGVPGSGVPGSGVPGSGVPGSGVPGSGVPGSGVPGSGVPGSGVPGSGVPGSGVPGSGVPGSGVPGSGVPGSGVPGSGVPGSGVPGSGVPGSGVPGSGVPGSGVPGSGVPGSGVPGSGVPGSGVPGSGVPGSGVPGSGVPGSGVPGSGVPGSGVPGSGVPGSGVPGSGVPGSGVPGSGVPGSGVPGSGVPGSGVPGSGVPGSGVPGSGVPGSGVPGSGVPGSGVPGSGVPGSGVPGSGVPGSGVPGSGVPGSGVPGSGVPGSGVPGSGVPGSGVPGSGVPGSGVPGSGVPGSGVPGSGVPGSGVPGSGVPGSGVPGSGVPGSGVPGSGVPGSGVPGSGVPGSGVPGSGVP
B4: RLP40-ELPS80: RLP-ELP block co-polypeptide with Ser guest residue in the corona (protein)
chain: QYPSDGRGQYPSDGRGQYPSDGRGQYPSDGRGQYPSDGRGQYPSDGRGQYPSDGRGQYPSDGRGQYPSDGRGQYPSDGRGQYPSDGRGQYPSDGRGQYPSDGRGQYPSDGRGQYPSDGRGQYPSDGRGQYPSDGRGQYPSDGRGQYPSDGRGQYPSDGRGQYPSDGRGQYPSDGRGQYPSDGRGQYPSDGRGQYPSDGRGQYPSDGRGQYPSDGRGQYPSDGRGQYPSDGRGQYPSDGRGQYPSDGRGQYPSDGRGQYPSDGRGQYPSDGRGQYPSDGRGQYPSDGRGQYPSDGRGQYPSDGRGQYPSDGRGQYPSDGRGGSGVPGSGVPGSGVPGSGVPGSGVPGSGVPGSGVPGSGVPGSGVPGSGVPGSGVPGSGVPGSGVPGSGVPGSGVPGSGVPGSGVPGSGVPGSGVPGSGVPGSGVPGSGVPGSGVPGSGVPGSGVPGSGVPGSGVPGSGVPGSGVPGSGVPGSGVPGSGVPGSGVPGSGVPGSGVPGSGVPGSGVPGSGVPGSGVPGSGVPGSGVPGSGVPGSGVPGSGVPGSGVPGSGVPGSGVPGSGVPGSGVPGSGVPGSGVPGSGVPGSGVPGSGVPGSGVPGSGVPGSGVPGSGVPGSGVPGSGVPGSGVPGSGVPGSGVPGSGVPGSGVPGSGVPGSGVPGSGVPGSGVPGSGVPGSGVPGSGVPGSGVPGSGVPGSGVPGSGVPGSGVPGSGVPGSGVPGSGVP

Legend:
Format in all cases: physicochemical
[1] = Static and dynamic light scattering (SLS/DLS) of block co-polypeptides; conditions: Table 5; for Nagg / Rg(nm) / Rh (nm): 10 μM in PBS, 15 °C; for ρ: shape factor Rg/Rh
Method: Key parameters of interest are the hydrophilicity of the corona-forming block, the hydrophilicity of the core block, the overall length of the co-polypeptide and the ratio of the two blocks. Parameters of evaluation are the size, morphology, stability, and thermoresponsive behavior. All measurements were made in 140 mM NaCl, 10 mM phosphate buffer, 3 mM KCl, pH 7.4 unless otherwise specified. Size was evaluated by the hydrodynamic radios (Rh) and radius of gyration (Rg) by dynamic light scattering (DLS) and static light scattering (SLS) respectively. Rg and Rh can be combined to yield the shape factor ρ=Rg/Rh, which provides a rough indication of the morphology of the scatterer. […] For an elongated scatterer, the shape factor depends upon the aspect ratio. A combination of temperature dependent turbidity and DLS was utilized to determine the phase behavior of the block co-polypeptides. Cryogenic transmission electron microscopy (Cryo-TEM) was utilized to evaluate the morphology and provide crucial insight into the hydration of the core/corona chains. Stability of the assembled nanostructure was determined by a shift in the I1/I3 fluorescent bands of pyrene as described previously.
Static and dynamic light scattering measurements (SLS/DLS) were performed using an ALV/CGS-3 goniometer system (Langen, Germany). Samples for the ALV/CGS-3 goniometer system were prepared at a concentration of 10 μM in PBS and filtered through 0.45 μm Millex-GV filters into a 10 mm disposable borosilicate glass tube (Fischer). Simultaneous SLS and DLS measurements were obtained at 15° C. of the ELP for angles between 30°-150° at 5° increments, with each angle consisting of 3 runs for 15 s. SLS experiments were only conducted for self-assembling block co-polypeptides, since the molecular weight of a single block co-polypeptide chain is already known, and the Rg of a single chain is likely near or below the detection limit of the SLS instrument. The differential refractive index (dn/dc) was determined by measuring the refractive index at different concentrations using an Abbemat 500 refractometer (Anton Paar, Graz, Austria). DLS data were analyzed by fitting the autocorrelation function with a cumulant fit, using the built-in ALV software. Hydrodynamic radius (Rh) was plotted against angle and extrapolated to zero. SLS data were analyzed by partial Zimm plots using ALVSTAT software in order to determine the Rg and molecular weight (MW).

[2] = Cryo-TEM micelle core size, inter-core spacing and aspect ratio; conditions: Table 6, mean ± standard deviation; for Spacing (nm): inter-core spacing
Method: Using the data from FIG. 18, particularly the longest straight line of an individual particle and a corresponding perpendicular measurement were made to describe the aspect ratio of particles observed.
Cryo-TEM experiments were performed at Duke University's Shared Materials Instrumentation Facility (Durham, N.C.). Lacey holey carbon grids (Ted Pella, Redding, Calif.) were glow discharged in a PELCO EasiGlow Cleaning System (Ted Pella, Redding, Calif.). A 3 μL drop (10 μM RLPn-ELP80) was deposited onto the grid, blotted for 3 s with an offset of −3 mm, and vitrified in liquid ethane using the Vitrobot Mark III (FEI, Eindhoven, Netherlands). Prior to vitrification, the sample chamber was maintained at 15° C. and 100% relative humidity to prevent sample evaporation. Grids were transferred to a Gatan 626 cryoholder (Gatan, Pleasanton, Calif.) and imaged with a FEI Tecnai G2 Twin TEM (FEI, Eindhoven, Netherlands), operating at 80 keV. Feature sizes and spacing distances were measured in ImageJ by manual measurement of at least 25 particles.

[3] = DLS of native and crosslinked pAzF diblock constructs in PBS and GuHCl
From the text: We wanted to thoroughly investigate the effects of pAzF-introduction as well as nanoparticle crosslinking on nanoparticle self-assembly. For this, we started by characterizing solely our five different ELP/RLP diblock architectures without any C-terminal functionalization. After expression and purification of the diblock constructs using ITC, the pAzF-containing constructs were crosslinked in solution by exposure to UV irradiation and characterized using dynamic light scattering (DLS). […] Generally, both processes seem to have increased the measured radii with this effect being more pronounced for the worm-forming constructs.
Apart from changes in nanoparticle morphology we were particularly interested in the effect pAzF-crosslinking had on their stability. […] GuHCl is a well-known denaturing agent that disrupts any inter- and intramolecular electrostatic forces and completely breaks down the quaternary, tertiary and secondary structure of most known proteins. Covalent bonds—such as the ones formed by pAzF-crosslinking—however remain unaffected by GuHCl, thus, the addition of this denaturing agent was expected to give us insights on the stability of our crosslinked nanoparticles. […] All native samples on the other hand resorted to complete unimerization upon exposure to GuHCl. As the Rh values for the crosslinked particles in GuHCl were generally larger than in PBS, the DLS data furthermore indicates a swelling behavior in the presence of the denaturing agent. This can most probably be attributed to the RLP core which is assumed to be completely collapsed in PBS but will however try to reach an elongated, random-coil morphology in the presence of GuHCl.
The first step of the characterization process was to produce crosslinked particles for the functionalized diblock constructs and to analyze whether the attachment of the ligands had caused any significant changes in particle size. […] Whatever the reason was, it had no effect on the crosslinking process as the particles still remained stable after GuHCl exposure.
Dynamic light scattering of cross-linkable protein nanoparticles was performed. […] However, these crosslinked particles remain assembled, actually growing slightly in size due to chain swelling of the core and corona in this new buffer. These novel scaffolds support various targeting domains and assemble into nearly identically sized nanoparticles between […] in hydrodynamic radius.

Molecule	Nagg [1]	Rg(nm) [1] [nm]	Rh (nm) [1] [nm]	ρ [1]	Spacing (nm) [2] [nm]	Core radius (nm) [2] [nm]	RH (nm) ([3]; 15 μm in 7.2M GuHCl, crosslinked)	RH (nm) ([3]; 15 μm in 7.2M GuHCl, native (not crosslinked))	RH (nm) ([3]; 15 μm in PBS, crosslinked)	RH (nm) ([3]; 15 μm in PBS, native (not crosslinked))
B1	693	94.4	71.0	1.31	29.6 ± 3.8	14.2 ± 2.4	–	–	–	–
B2	–	–	–	–	–	–	54.1 ± 2.0	7.0 ± 1.1	29.8 ± 0.3	28.1 ± 0.2
B3	392	36.0	49.4	0.73	27.9 ± 4.0	14.6 ± 2.2	–	–	–	–
B4	80	27.2	33.0	0.82	20.0 ± 2.6	13.1 ± 2.7	–	–	–	–
